Experimental findings from the DeepSol protein solubility set are described below.

This data set in a line: soluble on expression in E. coli; label from the status in PepcDB or PDB records.
Turning to “MGSDKIHHHHHHMIALGIEGTAWSLSIGVVDEEGVIALENDPYIPKEGGIHPREASQHHSERLPSLLSRVFEKVDKNSIDVVAFSQGPGMGPCLRVVATAARLLAIKLEKPLVGVNHCLAHVEVGRWQTGARKPVSLYVSGGNSQVIARRGNRYRVFGETLDIGIGNALDKLARHMGLKHPGGPKIEELAKKGQKYHFLPYVVKGMDFSFSGMVTAAQRLFDSGVRMEDVAFSFQETAFAMLTEVTERALAYLDLNEVLLVGGVAANKRLQEMLRIMCEDRGAKFYVPPKELAGDNGAMIAYTGLLMYKHGHQTPVEKSYVRPDFRIEDVEVNWD”, the “soluble on expression in E. coli” value was “not soluble”.

As for “MAHHHHHHMDYYRLLADIGHTYLQLIPSTAHVEKVTGLAARYCIFTITHTQMLLHCLMLWKEARLGDGGGFIDYAKVRNLKICSGAAEHTAQSNADAHSSNEGKQKWRTIDRTASLLFTLQLLEANCRYYCLVFLANYCALLLRSYSCLTDQRKVNRVHANVVEHLDMVSRLVLDLAEEYPNEYLSRLIMANLPKPSNFDRECLSSMGASSHMGSQKILSFGNDQHRHLYASGYPWSPTQSALIPLILARTVRLTVQENVSRHSQAQLRSPAERLSYHYTRWHFNSGLVIVPGCSLYMLKKSLPGFVPGKSTFAHYATMAEHEELHVPRAAADVHWQRGSAAVPVPEDGGGAAPGSHRNPRKSEDSADAEKREALTKKCEERLIKKRRHINTDLHLSDERTCVALCLEEACALALPSLLLSCVLQKATREPHFREFMNNAMNLVLGLYGPASSEWHMMASFLRKHLEG”, the “soluble on expression in E. coli” value is “not soluble”. As for “KRFEFVGWGSRQLIEFLHSLGKDTSEMISRYDVSDTIAKYISKEGLLDPSNKKKVVCDKRLVLLFGTRTIFRMKVYDLLEKHYKENQD”, the entry is “soluble”; as for “MGHHHHHHSHMHISGVFATKDAVAVWNGRQVAIFELSGAAIRSAGTFLCETPVLAMHEENVYTVESNRVQVRTWQGTVKQLLLFSETEGNPCFLDICGNFLVVGTDLAHFKSFDLSRREAKAHCSCRSLAELVPGVGGIASLRCSSSGSTISILPSKADNSPDSKICFYDVEMDTVTVFDFKTGQAWCLALVEVGPKGPSARDASAETRVWETPHALHLPAPPSWRGPGSVGKGSCER”, “not soluble”; as for “MAHHHHHHMLMVPMKFARAHLRRLHALQPTPTFAIECSLPFLCAWRAMKHRSLAPDDPFGERSTFSDPSDGLFAAWSGVDFNAFADAASSDEVRTAHFGPEWSRFATVGRLSVKIMREQGTPGVASAVSSKGGNKVLPRPPTAEELHSRELQARRKALEGNYATYEQYVMKELGIEDGGNEDEHMEEEMDDATEVANASEESMPLPHFMVERGEGQAHANDTNKQESTNGKPLLRTREGLQVPEPLMQMILDALGEPHGDRHLPRSDPLHWNTEVVILWVRKLEAARFALVSAAGTGEASLLEAPLMEDPSMHEAFRMARTNGKFLLHHTVPNTMFQVMRRWYLRRQEIALTFMKERQEMKNTTSISKDDVNDATFKSALEAGRAKLDELAAKVTPILIQETISQCYPYCH”, “not soluble”. As for “MGKHEKGSSKDLANRTKSKGLQKLKFFCQMCQKQCRDANGFKCHLTSEAHQRQLLLFAENSNSYLRQFSNDFEKNFMQLLRTSYGTKRVRANEVYNAFIKDKGHVHMNSTVWHSLTGFVQYLGSSGKCKIDEGDKGWYIAYIDQEALIRKEEDQRKQQQEKDDEERHMQIMDGMVQRGKELAGDDEHEYEATELIRDTPDQKIQLDLNLGILDRKLDVKSGVASAKISIFDMPKVKKEDPDEPGPSQPSRKSGKKRSRSRSPAAKKFSKKSALDEIKEMEERKKERKNRKDYWMREGIVVKVITKSLGSEYYKAKGVVRKVVDDYTAQVKLDDGTVVKLDQEHVETVIPSLGRQMMIVNGAYRGQEATLESIDEKRFSLRLKIASGPTRGRQIDVPYEDASKLA”, the entry is “not soluble”; as for “MGSDKIHHHHHHMSIYNSIGLHYSKTRVPDIRIVNKIIDLLNLPKNSIIADIGAGTGGYSLALANKGFLVNAIEPSLVMQKQAVEHPQVKWFTGYAENLPLLDNSVDTVVSILAIHHFSHLPKAFQEMHRIIKNGAIILLTFDIRLAQKIWLYDYFPFLWEDALQFLPLNEQINLIQINTKRRVEAIPLLLPYDLSDLFAAAGWRRPELYLQAEVRAGISSLALANQDLVDQGVKLLTADLSSEKWRKQYGDIHNLTEIDIGYRFIHTTLNN”, “not soluble”.
